Results published in US11932672B2, “Fermentation process” (Syngulon S.A., priority 2017, dated 2024).
Entries after “also recorded” stand apart in the source; their conditions may differ.

Key:
[1] = test system: Candida species; details: cited from earlier work
[2] = test system: fungal microbial organism; details: cited from earlier work
[3] = test system: bacteriocin C7; experiment: Resistance to C7 conferred by plasmid-expressed immunity gene (vector selection marker); assay type: cell-based; details: gene expressed from plasmid (pBACT2.0, pBACT5.0)
Excerpt: The vector used is pBACT2.0 (FIG. 6, SEQ ID NO: 713).
(§1) The vector used is pBACT5.0 (FIG. 5, SEQ ID NO: 712).

[4] = test system: bacteriocin B17; experiment: Resistance to B17 conferred by plasmid-expressed immunity gene (selection on plates containing B17); assay type: cell-based, BL21(DE3)
Excerpt: We have separated genes from B17 immunity structures and cloned these into vectors behind an inducible promoter (Ptac).
We have separated the genes from B17 immunity structures and cloned them into vectors behind an inducible promoter (Ptac).
We inserted the B17 McbG immunity structure gene and cloned the latter into vectors behind the weak constitutive promoter (P24). A second construct was generated with a P24 LacO hybrid promoter which is an inducible promoter repressed in the presence of lad and active in presence of IPTG.
The BL21(DE3) strain was transformed with vector pMcbG1.0 or pMcbG1.1 (see FIG. 3 or 4). After transformation, transformants were selected on plates containing B17. Isolated colonies were re-grown and the plasmid they contained was analyzed by gel electrophoresis after treatment with relevant restriction enzymes.

[5] = test system: ColV; experiment: Resistance to ColV conferred by plasmid-expressed immunity gene (vector selection marker); assay type: cell-based; details: gene expressed from plasmid pBACT5.0
Excerpt: as §1

[6] = test system: pathogenic Gram-positive and Gram-negative bacteria; details: cited from earlier work

**Q.** With “Enterococcus faecalis peptide: Enterococcus faecalis peptide, SEQ ID NO: 1 (WLPPAGLLGRCGRWFRPWLLWLQSGAQYKWLGNLFGLGPK; listed as Enterococcus faecalis)” as the molecule, how does the “neutralizing activity against Candida species” value [1] read?
**A.** Its value is “neutralizing activity”.

**Q.** For botrycidin AJ1316, which antifungal activities [2] is on record?
**A.** Its antifungal activities is “antifungal activities”.

B1: C-terminal part of MccE: C-terminal portion of MccE, SEQ ID NO: 701 (amino acid SEQ ID NO: 706) (protein)
chain: FRKYDVSLTPSGIKVNDEITLLYPALKYAEELYLLINQNKINFIKSMAWPAFVNNISDSVSFIEQSMIDNQNEKALILFIKYKTKIAGVVSFNIIDHANKTAYIGYWLGANFQGKGIVTNAINKLIQEYGDSGVIKRFVIKCIVDNKKSNATALRCGFTLEGVLQKAEILNGVSYDQNIYSKVIG
modifications: C-terminal part of MccE protein
**Q.** Which “resistance to bacteriocin C7” value [3] does the source give for B1 here?
**A.** The value was “sufficient to confer resistance; also recorded: give resistance”.

**Q.** And the “resistance to bacteriocin C7” value ([3]; listed as truncated MccE)?
**A.** Its value is “give resistance”.

B2: McbE/F: pumps of the B17 immunity structure, construct pSyn2-McbE/F SEQ ID NO: 703 (protein, UniProt P05528 1-241; P05529 1-247, looked up)
Protein McbE: MVTLKMAIIFLMEQIRTPFSLIWTIMSPTVLFFFLHFNEIELHYGDTAWLGKQISWFVGYISFSVVLFNYCLYLVGRRESGFIATFVHNMDGRLLFIRSQLIASLIMSILYVFFFILVVLTGFQASPDYQIVMIILKSIYINAFMMVSLTFMASFRVTFQTASTIYSVLITVCMVSGIVSLKYNEGIVYWINQVNPIAIYSTILQSDQELSLMTIFFYSIMLIISIISALTFKTEPVWSSQ
Protein McbF: MTIPLLEINSLSFSYKVNLPPVFNNLSLKIEQGELIGLLGENPAGKTTLFNLIRGGVSNYEGTLKRNFSGGELVSLPQVINLSGTLRNEEVLDLICCFNKLTKKQAWTDVNHKWNDNFFIRYDKIRRKRTYTVSYGEKRWLIISLMVTLCKNARLFLLDEPTVGIDIQYRMMLWELINKITADGKTVFFSTHIFDELTRDKIPFYMLSKNSINRYSDMSDFIQSNNETTQKRHLLKKLWEQETDTWI
**Q.** Which “toxicity of expression to the strain” value ([4]; pSyn2-McbE/F under Ptac) does the source give for B2 here?
**A.** The value was “toxic”.

B3: Cvi: immunity gene giving resistance to ColV, SEQ ID NO: 709 (protein, listed as Escherichia coli)
chain: MDRKRTKLELLFAFIINATAIYIALAIYDCVFRGKDFLSMHTFCFSALMSAICYFVGDNYYSISDKIKRRSYENSDSK
modifications: gene (1)..(237) Cvi
**Q.** Which “resistance to ColV” value [5] does the source give for B3 here?
**A.** The value was “give resistance”.

B4: McbG: immunity to the bacteriocin B17, nucleic acid SEQ ID NO: 699 (protein, listed as Escherichia coli)
chain: MDIIEKRITKRHLSESELSGVNYYNCIFERIQLDNFNFRDCEFEKCRFVNCSIKNLKLNFFKLIDCEFKDCLLQGVNAADIMFPCTFSLVNCDLRFVDFISLRLQKSIFLSCRFRDCLFEETDLRKSDFTGSEFNNTEFRHSDLSHCDFSMTEGLDINPEINRILSIKIPQEAGLKILKRMGVVVGG
modifications: gene (1)..(564) McbG gene
**Q.** For B4, which “resistance to B17” value ([4]; gene expressed from plasmid, Ptac not induced, weak P24 promoter or pBACT2.0) is on record?
**A.** The value was “sufficient to give the phenotype of resistance”.

B5: MccE: immunity to the bacteriocin C7, nucleic acid SEQ ID NO: 700 (protein, listed as Escherichia coli)
chain: MAQKITPSKIVKHARELIIKGIESGDNSFVIFDVDGALERLEHYRCQLKSFFPNSSIAYSYKSNNLAQWCQIISGKGLYAEVCSVDEMNLAKRDGFNRIVFDGPLKKTSELLKAIEIGALIEVDNIDECKRLNELCKLHKLTCRIHLRLSHYYDDNLSRFGLSESEAINLLEMLISKSEYLILDGFHLHVGSNLPNAEKICKAVIQYHELILRYMPDDGTLNLGSGIPADSFSASSDNPTPCPEVFFSSIYDTIKNCFGTVCDKWNYIFEPGRHLVEDFGYFIGKVISTKNRYGVKVAQTNIGINWIPSIRNWDHSFTLFHNHNHISDDKSDEYIIAGFNCFECDCLFPSVILPSNLSDYLFSVRGCGAYDMQTGNQWTRNLYAVYTITNDVVNISRIHRRELDFRKYDVSLTPSGIKVNDEITLLYPALKYAEELYLLINQNKINFIKSMAWPAFVNNISDSVSFIEQSMIDNQNEKALILFIKYKTKIAGVVSFNIIDHANKTAYIGYWLGANFQGKGIVTNAINKLIQEYGDSGVIKRFVIKCIVDNKKSNATALRCGFTLEGVLQKAEILNGVSYDQNIYSKVIG
modifications: gene (1)..(1770) MccE gene
**Q.** With B5 as the molecule, how does the “resistance to bacteriocin C7” value [3] read?
**A.** Its value is “give resistance”.

B6: Ent35-MccV: hybrid bacteriocin: N-terminal glycine, Enterocin CRL35, three-glycine linker, C-terminal Microcin V, SEQ ID NO: 3 (protein)
chain: GKYYGNGVSCNKKGCSVDWGRAIGIIGNNSAANLATGGAAGWKSGGGASGRDIAMAIGTLSGQFVAGGIGAAAGGVAGGAIYDYASTHKPNPAMSPSGLGGTIKQKPEGIPSEAWNYAAGRLCNWSPNNLSDVCL
modifications: Hybrid bacteriocin Ent35-MccV
**Q.** For B6, which antimicrobial activity [6] is on record?
**A.** Its antimicrobial activity is “displays antimicrobial activity”.
